Measured values reported in paper doi:10.1101/2021.09.03.458882 (bioRxiv, 2021).

Target: the molecule itself
Assay: FRET or BRET

B1: Glucose oxidase (from Aspergillus niger) (enzyme, UniProt P13006 17-605, looked up)
chain: LPHYIRSNGIEASLLTDPKDVSGRTVDYIIAGGGLTGLTTAARLTENPNISVLVIESGSYESDRGPIIEDLNAYGDIFGSSVDHAYETVELATNNQTALIRSGNGLGGSTLVNGGTWTRPHKAQVDSWETVFGNEGWNWDNVAAYSLQAERARAPNAKQIAAGHYFNASCHGVNGTVHAGPRDTGDDYSPIVKALMSAVEDRGVPTKKDFGCGDPHGVSMFPNTLHEDQVRSDAAREWLLPNYQRPNLQVLTGQYVGKVLLSQNGTTPRAVGVEFGTHKGNTHNVYAKHEVLLAAGSAVSPTILEYSGIGMKSILEPLGIDTVVDLPVGLNLQDQTTATVRSRITSAGAGQGQAAWFATFNETFGDYSEKAHELLNTKLEQWAEEAVARGGFHNTTALLIQYENYRDWIVNHNVAYSELFLDTAGVASFDVWDLLPFTRGYVHILDKDPYLHHFAYDPQYFLNELDLLGQAAATQLARNISNSGAMQTYFAGETIPGDNLAYDADLSAWTEYIPYHFRPNYHGVGTCSMMPKEMGGVVDNAARVYGVQGLRVIDGSIPPTQMSSHVMTVFYAMALKISDAILEDYASMQ
modifications: amine reactive dye Alexa Fluor 488 on one population and Alexa Fluor 532 on the other
binding result: binds
